What was measured:
[1] = target: T1, IL-10R (Mus musculus, UniProt Q61190+Q61727, C4S); experiment: IL-10 reporter; format: cell-based; details: incubated for 24 hours with different amounts
T1 construct: expressed in transfected cells
Experimental: (§1) IL-10/IFN-γ/TNF-α reporters were incubated for 24 hours with different amounts of IL-10 (FIGS. 5A and 5B), IFN-γ (FIGS. 5C and 5D) or TNF-α (FIGS. 5E and 5F).
(§2) Furthermore, the systems and methods provided herein are applied to generate other cytokine/cytokine receptor reporter system (tTA fused onto one receptor subunit via a protease cleavage site, TEV fused to another receptor subunit, optimal linkers inserted between different proteins to ensure high signal-to-background ratio). The screening platform provided herein are used to identify immune modulatory agents including, but not limited to, small molecules and proteins that modulate cytokine signaling (FIGS. 5A-6F).

[2] = target: IL-17RA/RC reporter (IL-17RA-tTA and IL-17RC-TEV co-expressed in reporter cells) (Mus musculus); experiment: cell-based or functional assay
[3] = target: T2, IL-17RA/RC (Mus musculus, UniProt Q60943+Q8K4C2, F156E); experiment: IL-17RA/RC reporter assay (GFP reporter cells); format: cell-based; details: 24 h stimulation, IL-17A-F 100 ng/ml; for increase of percentage of GFP+ cells / GFP expression (reporter response): TNFa 5 ng/ml
T2 construct: expressed in transfected cells

[4] = target: T3, IL-17RA/RC (Mus musculus, UniProt Q60943+Q8K4C2); experiment: IL-17RA/RC reporter assay (GFP reporter cells); format: cell-based; details: reporter cells incubated with different amounts for 24 hours
T3 construct: expressed in transfected cells

[5] = target: IL-17RA/RB reporter (IL-17RA-tTA and IL-17RB-TEV co-expressed in reporter cells) (Mus musculus); experiment: cell-based or functional assay
[6] = target: T4, IL-17RA/RB (Mus musculus, UniProt Q60943+Q9JIP3); experiment: IL-17RA/RB reporter assay (GFP reporter cells); format: cell-based; details: 24 h stimulation, IL-17A-F 100 ng/ml; for increase of percentage of GFP+ cells / GFP expression (reporter response): TNFa 5 ng/ml
T4 construct: expressed in transfected cells
Experimental: Doxycycline was used as a negative regulator of the GFP reporter. IL-17A-F: 100 ng/ml, TNFa: 5 ng/ml, doxycycline: 1 μg/ml.
Using a similar approach, the inventors have recently also successfully generated the IL-17RA/IL-17RB reporter line (FIG. 4). […] Since IL-17E plays a role in allergy and asthma, small molecules modulators that will be identified using this platform may create a new IP opportunity.

[7] = target: T5, TNFαR1 (Homo sapiens, UniProt P19438); experiment: TNF-α reporter; format: cell-based; details: incubated for 24 hours with different amounts
T5 construct: expressed in transfected cells
Experimental: as §1, §2

[8] = target: T6, IFNγR (Mus musculus, UniProt P15261+Q63953); experiment: IFN-γ reporter; format: cell-based; details: incubated for 24 hours with different amounts
T6 construct: expressed in transfected cells
Experimental: as §1, §2

IL-10: cytokine, used to activate the IL-10 reporter
dose dependent activation of reporter [1]: dose dependent activation

IL-17A (ligand)
percentage of GFP^+ cells (24 h stimulation, 100 ng/ml) [2]: 60%

IL-17A: IL-17 family cytokine; ligand of the IL-17RA/IL-17RC heterodimer
increase of percentage of GFP+ cells / GFP expression (reporter response) [3]: responds highly selectively
percentage of GFP+ cells ([3]; increased from 1%): 60%
dose-dependent activation of the GFP reporter [4]: activate the GFP reporter system in a dose-dependent manner
dose-dependent activation of the GFP reporter ([4]; listed as IL-17a): activated in a dose-dependent manner

IL-17E (ligand)
percentage of GFP^+ cells (24 h stimulation, 100 ng/ml) [5]: 80%

IL-17F: IL-17 family cytokine
dose-dependent activation of the GFP reporter [4]: activate the GFP reporter system in a dose-dependent manner
dose-dependent activation of the GFP reporter ([4]; listed as IL-17f): to a lesser degree

TNFa
increase of percentage of GFP+ cells / GFP expression (reporter response) [6]: failed to increase GFP expression
increase of percentage of GFP+ cells / GFP expression (reporter response) [3]: failed to increase GFP expression
dose dependent activation of reporter [7]: dose dependent activation

B1: IL-17C: IL-17 family cytokine (protein, UniProt Q9P0M4 19-197, looked up)
Interleukin-17C: HHDPSLRGHPHSHGTPHCYSAEELPLGQAPPHLLARGAKWGQALPVALVSSLEAASHRGRHERPSATTQCPVLRPEEVLEADTHQRSISPWRYRVDTDEDRYPQKLAFAECLCRGCIDARTGRETAALNSVRLLQSLLVLRRRPCSRDGSGLPTPGAFAFHTEFIHVPVGCTCVLPRSV
dose-dependent activation of the GFP reporter [4]: not

B2: IL-17E: IL-17 family cytokine; the natural ligand of IL-17RA/RB (protein, UniProt Q9H293 33-177, looked up)
Interleukin-25: YSHWPSCCPSKGQDTSEELLRWSTVPVPPLEPARPNRHPESCRASEDGPLNSRAISPWRYELDRDLNRLPQDLYHARCLCPHCVSLQTGSHMDPRGNSELLYHNQTVFYRRPCHGEKGTHKGYCLERRLYRVSLACVCVRPRVMG
increase of percentage of GFP+ cells / GFP expression (reporter response) [6]: responds highly
percentage of GFP+ cells ([6]; increased from 1%): 80%

B3: IFN-γ: dimerized soluble cytokine (interferon) that activates interferon gamma receptors (protein, listed as Homo sapiens)
chain: MKYTSYILAFQLCIVLGSLGCYCQDPYVKEAENLKKYFNAGHSDVADNGTLFLGILKNWKEESDRKIMQSQIVSFYFKLFKNFKDDQSIQKSVETIKEDMNVKFFNSNKKKRDDFEKLTNYSVTDLNVQRKAIHELIQVMAELSPAAKTGKRKRSQMLFRGRRASQ
dose dependent activation of reporter [8]: dose dependent activation
